# Experiment: soluble on expression in E. coli; label from the status in PepcDB or PDB records
row,Sequence,soluble on expression in E. coli
1,MQATLIKPTIFTHQPILEKLFKSQSMTQEESHQLFAAIVRGELEDSQLAAALISMKMRGERPEEIAGAASALLADAQPFPRPDYDFADIVGTGGDGTNSINISTASAFVAASCGAKVAKHGNRSVCQPLAGSCDLLQAFGIRLDMSAEDSRQALDDLNVCFLFAPQYHTGFRHAMPVRQQLKTRTIFNVLGPLINPARPPKALIGVYSPELVLPIAQALKVLGYKNAAVVHGGGMDEVAIHTPTQVAELNNGEIESYQLSPQDFGLQSYSLNALQGGTPEENRDILARLLQGKGDAAHARQVAANVALLLKLFGQDNLRHNAQLALETIRSGTAFERVTALAARG,soluble
2,MQDFLWKSCAIMGTMKLRIEQDDQYKELEIHITYGQKDKLIERILGFLETVDRQLSCYQEGRKYLVNFSDIYYIESVDKKTFVYLADEIYQTDLRLYQLLHDLQHDGFVQISKSCLLNINVLENIRPLFNSRMEATLLNGERVIVNRRYLPDVKEALKGIQ,not soluble
3,MQDNSRYTHFLTQHYDAKPQGRDDRYCESIMRRRGLTSDRCKPINTFIHGNKRSIKAICENKNGNPHRENLRISKSSFQVTTCKLHGGSPWPPCQYRATAGFRNVVVACENGLPVHLDQSIFRRP,soluble
4,MQDPRHPQGLPLSPGLPKRQRQDRTIYNWKQQEVLENHFKEEQYPDYDTRQELAEMLNLREYQVQVWFKNRRAKRSREQWFQKQLQQLQKHPQQQHPQQQHPQQQLQQQQPQQQPQQQQPQQQQLHQQPQ,soluble
5,MQDRNFDDIAEKFSRNIYGTTKGQLRQAILWQDLDRVLAEMGPQKLRVLDAGGGEGQTAIKMAERGHQVILCDLSAQMIDRAKQAAEAKGVSDNMQFIHCAAQDVASHLETPVDLILFHAVLEWVADPRSVLQTLWSVLRPGGVLSLMFYNAHGLLMHNMVAGNFDYVQAGMPKKKKRTLSPDYPRDPAQVYLWLEEAGWQIMGKTGVRVFHDYLREKYQQRDCYEALLELETRYCRQEPYITLGRYIHVTARKPQSKDKV,not soluble
6,MQDRSCYKLTQEGERLFRMQKYEKGIDLLKKALEVGTDDFSLLSAIYCQLGNAHTMLKDYEQALKFHTYDILVERLLGNKEGEAKSCANLGNIFKMKGAYNDALTFTFKQLDFAEELGDRVLKSRAYYNIATIYVERGRCTKLEAAEEKNDAKNAEATSDFENAAKYFMLNLEMSEKSEDALTMGRCYGSLGNTYYCLGDYDQSIHFHKLRLELSQQYGDRASMRRAHANIANCHALKSNMPLAIQHYKLAYNLAIEIGNKTEEAQMAYSLANALYIGKEVQKAITYFQRHLKIARSLEDISGQLRSYYSLALSFNNLCERRKALYFLVLAKRSSLQVNDTSALTDIDNLLNEILEAGQEDVLVDDIELIIDESADPAPADIEHRELRLTYFQKRNIHDKPVNTPEDPLAEDRYEKEEFFDMLAKLQSKRMNDQRVDASVLSSNLDFRVRQVDTEPDNSSTDGSEVLIDLLLNAQGRRMDDQRAPFLPGLNPNGQIILRRLNTDPGNEELDEHLVEWLMRVQGERLDEQRSELPPIKPEGQEEVDKKKEEDVTAIVMRMQAGRLEDQRAHLPNIPTSKN,not soluble
7,MQEAVLQLIEVQLAQEEVTESPLGGDENAQLHASGYYALFVDTVPDDVKRLYTEAATSDFAALAQTAHRLKGVFAMLNLVPGKQLCETLEHLIREKDVPGIEKYISDIDSYVKSLL,soluble
8,MQEDDSVKPFQTVGAHRDLIHCVSFDPHGRRMATCASDMTMAIWDRKPDGNWRRSAHWKCHGGAVWRVIWAHPEFGQIVATCSYDRTIVIWEEQIVRSEKDLKQKESQWIRRTIISDNRSDVTDICFSPRHLGLMMASCNVLGTVRIYEAPDIVDASRWNLIHELQAFHTRCGCVTWSLSRMHRPLIAVGSDEKKAENKKRVVIYENIDGLRKWQRINSLVFDLPCPITDLKFSPISMVDSHQLAVASGDVHVYNIKVARSAILEEDGVENPIQLADYNLIKVALLGDHRKAWRLRYNLMGSVISSTSLDGTLRSWKSLFVNQWVKLSEMNVDDYVPSPEEVRAFISSKTTERLPSQLEKTYF,not soluble
9,MQEKTTESRILDATGRPFKVREAKELQTDDVRLAGLHRTFSNHPSSGLTPASAASILLSAEQGDLIAQCELAEDIEEKDGHLFAELDKRKRALIGVDYYLEPPSNPTPQEKADTEYLQQMLEEGGWIKSLIKSIADAILKGFSMHELAWSRELGEWFVEVPEYRDPSWFMTHPERRNELRLRDSTHEGAELWPFGWIKHIHPAKSGYVSRSGLVRQLIWPFIFKNYSVRDLAEFLEIYGLPLRIGQYPAGASDGEKRALLNAVMSIGHNAGGIMPKGMVMDFHSAATGQADPFELMMTWAEKTMSKVILGGTLTTQADGKSSTNALGNVHNEVRQELRDADLALVAETLTRDLIAPLYALNCKSYRSHRRHPRLVFDTTEAEDLRALAYPLRAFVSMGMQIPQNWLHEKTRIPKPANGEAVLVIQQDDPNATAASQTALAALSAKEGAAKQPDASLNEPSQTALDKALDALTQGQMSEAYMGMVEPLLAQLQSEPEQLRAQLEQNYPNMDTEQLTETLARLMFVAELWGMANA,not soluble
10,MQEQAQQFIFKVTDKAVEEIKKVAQENNIENPILRIRVVPGGCSGFQYAMGFDDTVEEGDHVFEYDGVKVVIDPFSMPYVNGAELDYVVDFMGGGFTIRNPNATGSCGCGSSFSCGLEHHHHHH,soluble
11,MQGAQTSEDNLGSQSQPGPCGYIYFYPLATYPLREVATLGTGYAGHRCLTVPLLCGITVEPGFSINVKALHRRPDPNCGLLRATSYHRDIYVFHNAHMVPPIFEGPGLEALCGETREVFGYDAYSALPRESSKPGDFFPEGLDPSAYLGAVAITEAFKERLYSGNLVAIPSLKQEVAVGQSASVRVPLYDKEVFPEGVPQLRQFYNSDLSRCMHEALYTGLAQALRVRRVGKLVELLEKQSLQDQAKVAKVAPLKEFPASTISHPDSGALMIVDSAACELAVSYAPAMLEASHETPASLNYDSWPLFADCEGPEARVAALHRYNASLAPHVSTQIFATNSVLYVSGVSKSTGQGKESLFNSFYMTHGLGTLQEGTWDPCRRPCFSGWGGPDVTGTNGPGNYAVEHLVYAASFSPNLLARYAYYLQFCQGQKSSLTPVPETGSYVAGAAASPMCSLCEGRAPAVCLNTLFFRLRDRFPPVMSTQRRDPYVISGASGSYNETDFLGNFLNFIDKEDDGQRPDDEPRYTYWQLNQNLLERLSRLGIDAEGKLEKEPHGPRDFVKMFKDVDAAVDAEVVQFMNSMAKNNITYKDLVKSCYHVMQYSCNPFAQPACPIFTQLFYRSLLTILQDISLPICMCYENDNPGLGQSPPEWLKGHYQTLCTNFRSLAIDKGVLTAKEAKVVHGEPTCDLPDLDAALQGRVYGRRLPVRMSKVLMLCPRNIKIKNRVVFTGENAALQNSFIKSTTRRENYIINGPYMKFLNTYHKTLFPDTKLSSLYLWHNFSRRRSVPVPSGASAEEYSDLALFVDGGSRAHEESNVIDVVPGNLVTYAKQRLNNAILKACGQTQFYISLIQGLVPRTQSVPARDYPHVLGTRAVESAAAYAEATSSLTATTVVCAATDCLSQVCKARPVVTLPVTINKYTGVNGNNQIFQAGNLGYFMGRGVDRNLLQAPGAGLRKQAGGSSMRKKFVFATPTLGLTVKRRTQAATTYEIENIRAGLEAIISQKQEEDCVFDVVCNLVDAMGEACASLTRDDAEYLLGRFSVLADSVLETLATIASSGIEWTAEAARDFLEGVWGGPGAAQDNFISVAEPVSTASQASAGLLLGGGGQGSGGRRKRRLATVLPGLEV,soluble
12,MQGEALKDFLFDKADDMKAVDIVTLDVKEKSSVTDYMIVCTGTSKRHVASIAEHVANEAKLSGLQPLGMNGENEGEWVVLDMGSVMLHVMQEAPRELYQLEKLWGLEHHHHHH,not soluble
13,MQIVTDKNKVALYYKDIAVTYKEFILNTKKIKQFTKIKEFTNNMIYMENRPELLYSFFAIWDSRATCVCIDASSTAVELTYYIDNSDVVKIFTTKMQVEKVKGALSILSKQIEIIVVDEINLSEIKIDENSSENLVINSPEKEDTALILYTSGTTGKPKGVMLTFDLEHHHHHH,not soluble
14,MQKAKNDYGTVVSVLKEDFHGFATGSIGAPDLNTVLTYAFPGECEYPWINFKPGYTQQQGWGGANVWQAGGTVCLNADGENFSHLNTPMLNVSGYQNIAIVRFDGVSDSLFSCLIREIRTLPSFASMPVRRKEWPIRL,not soluble
15,MQKVLAIVGPTAIGKTDLAISLAQKLNGEIISGDSMQVYQEVEVGTAKATKEEQAKVKHYLVDNRSVFDEYSVKDFVDEAKKAISEVAKKGKLPILVGGTGFYVNALLNEMQLGERNDEERGTSQKWEDYLKENGAEKLWQILNEKDPTAAAKIPVPNSRRTMRALTVIDRTGKKFSEQQKKIKPRYDYLIIGLNSDRQEIYRRINLRVDKMMGKGMLEEAKFIYDNRDKEHQILQAIAYKEFFPYFDGEKSLEDCVTQLKTASRRYAKRQLTYFRNQLPIQWFDPLNDLECEQKIINKVREWENGLEHHHHHH,soluble
16,MQLEELINQHYSKLNDNDFHILKYILNHKHTCYHLGIDALAKACSVSRSSILRLAQKLGFSGYSEFRVFLKWEDQPEEGESMSFEKLLDDIEANLKFLRTKDMTDMCQLIDAADRIFVYGSGNAQKICARDLQRMFIPRHRYLILIEDTNEFNLMRDDFKVNDLFIIISLSGETPELIPQARMLSAKGIPFISITNLKNNVLAQLTPHNLYATSKPVTLSDRTEIVAFAPFFLVGEALFRAYVDYKEAEKNDNEMAGDPLEHHHHHH,soluble
17,MQNAVKLDEIDHKIMNLLYENARISVSEIGRIISMTQPAVKERINKLEDQGVIAAYRTKFEPSKINKNIQAFIMFKTSQCSDFIQFCNAAPEVTDLYRISGEFNYMMKVMSDSMDSLAAFLDSLMQFGLSSPLIVLKSEFEEKLSF,soluble
18,MQNKIQVKSVEKRENALIFCAENSEIEVKELSARNHVLVDSDNLSFLYILENESSFIYVSIPHTCWEAMHEAMNNDVVMFVRVNDIEMELEGLKEEVEYLVENIEGNANYGEELVTAVEKVFL,not soluble
19,MQNPQNLIWIDLEMTGLDPDRDVIIEMATIVTDSDLNTLAEGPVIAIHQPEEILAGMDEWNTRQHGQSGLTQRVRESTVSMAEAEAQTLAFLEQWVPKRSSPICGNSICQDRRFLYRHMPRLEGYFHYRNLDVSTLKELAARWAPQVRESFKKGNTHLALDDIRESIAELRHYRDHFIKL,not soluble
20,MQNTAHIIGAGISGLSAAVRLANAGFKVAVHEATHQAGGRCRSYFDGATNLTIDNGNHLLLSGNSHARAYARSIGTEAGLVGPESAQFPFVDIKTGQRWQIDLGTGRLPTWVLDESRRVPDTGLTDYLKLAPLIWASEETLVGKSIPTEGVLYQRLVQPLLLAALNVDPPEGSAGLAGAIVRETLLAGGQACRPLIARDGLSAVLIEPAVKFLQERGHSVQLGHELRAFVTSDGKAGALNFGGEDVIQLADGDVVVMAVPPRAAASLLPGLKTPTEFRAIVNAHFRFEPPPGSPPILGVIGGIVEWLFAFPNRLSVTISNGDRLVDMPREELAQAIWNDVCEAGGVSGELPPWQIVRERRATFAATPAQNALRPGPVTALKNLFLAGDWTATGLPATIEGSVRSGDRAADLVLAAQRPLEHHHHHH,not soluble
21,MQNTTHDNVILELTVRNHPGVMTHVCGLFARRAFNVEGILCLPIQDSDKSHIWLLVNDDQRLEQMISQIDKLEDVVKVQRNQSDPTMFNKIAVFFQ,not soluble
22,MQPNDITFFQRFQDDILAGRKTITIRDESESHFKTGDVLRVGRFEDDGYFCTIEVTATSTVTLDTLTEKHAEQENMTLTELKKVIADIYPGQTQFYVIEFKCL,soluble

# — the DeepSol protein solubility set
